Measurements taken from paper PMC13161223, “Molecular anatomy of PLK1 master docking motifs” (Nature Communications, 2026).
Non-standard residues stand in square brackets, D forms with d. No end group written: not given here. pT = C[C@@H](OP(=O)(O)O)[C@H](N)C(=O)O; MBP = maltose-binding protein

Assays:
[1] = target: singly phosphorylated pT98 peptide of CENP-U (ITC) (human); assay: ITC; phosphorylated CENP-U construct in the cell, ^MBPPBD in the syringe; 25 °C, 20 mM Hepes pH 7.5, 300 mM NaCl, 1 mM TCEP, 1% glycerol; one set of sites model
[2] = target: Biotin-conjugated ^MBPPBD (immobilised ligand of BLI) (human) (UniProt P53350); assay: BLI; biotin-conjugated ^MBPPBD immobilised on streptavidin sensors, CENP-U variants as analyte; 25 °C, 20 mM HEPES pH 7.5, 2.5% glycerol, 300 mM NaCl, 0.1 mM TCEP, 0.3 g/L BSA, 0.05% Tween20; KD from koff/kon of the global fit
[3] = target: T1, ^MBPPBD (6xHis-MBP-TEV-PLK1^345-603) (human, UniProt P53350 345-603); assay: BLI; biotin-conjugated phosphorylated ^MBPCENP-U^58-114 immobilised on streptavidin sensors, ^MBPPBD or ^6HisPLK1^FL as analyte; 25 °C, 20 mM HEPES pH 7.5, 2.5% glycerol, 300 mM NaCl, 0.1 mM TCEP, 0.3 g/L BSA, 0.05% Tween20; one site for pT78, two sites (KD1, KD2) for pT98 and pT78/pT98; settings: both partners purified
T1 construct: PLK1, human, residues 345-603 (Polo-box domain construct); The plasmids paragraph speaks of expression in insect cells, the purification paragraph of E. coli BL21 (DE3); TEV site between MBP and PLK1; source: E. coli BL21 (DE3), purified (HisTALON, SEC); not shown: MBP, N-terminal, kept

[4] = target: T2, ^6HisPLK1^FL (6xHis-TEV-PLK1, full length) (human, UniProt P53350 1-603); assay: as above; settings: both partners purified
T2 construct: PLK1, human, 603 residues, full length; also called full length PLK1; source: insect cells (plasmid from a previous study), purified (HisTALON, SEC); not shown: 6xHis, N-terminal, kept

[5] = target: T1, ^MBPPBD (6xHis-MBP-TEV-PLK1^345-603); assay: ITC; phosphorylated CENP-U construct in the cell, ^MBPPBD in the syringe; 25 °C, 20 mM Hepes pH 7.5, 300 mM NaCl, 1 mM TCEP, 1% glycerol; one set of sites model; settings: both partners purified
[6] = target: T1, ^MBPPBD (6xHis-MBP-TEV-PLK1^345-603); assay: SEC; analytical SEC, Superdex 200 5/150, 20 mM Bis-tris/HCl pH 6.5, 250 mM NaCl, 5% glycerol, 1 mM TCEP, 4 °C; PBD added 2:1 to the CENP-U variant (10 µM ^MBPPBD and 5 µM ^MBPCENP-U^58-114 in Fig. 1C); settings: both partners purified
[7] = target: T3, Biotin-conjugated ^MBPPBD (immobilised ligand of BLI) (human, UniProt P53350 345-603, biotin (Gly-Gly-Gly-Gly-Biotin conjugated to the C-terminal PLPETG peptide by sortase A)); assay: BLI; biotin-conjugated ^MBPPBD immobilised on streptavidin sensors, CENP-U variants as analyte; 25 °C, 20 mM HEPES pH 7.5, 2.5% glycerol, 300 mM NaCl, 0.1 mM TCEP, 0.3 g/L BSA, 0.05% Tween20; KD from koff/kon of the global fit; settings: both partners purified
T3 construct: PLK1, human, residues 345-603 (Polo-box domain construct); As m1 with a C-terminal PLPETG peptide used for biotin labelling; held on streptavidin sensors; also called immobilized PBD; source: E. coli BL21 (DE3), purified (HisTALON, SEC), biotin-labelled with sortase A; not shown: MBP, N-terminal, kept; PLPETG peptide conjugated with Gly-Gly-Gly-Gly-Biotin, C-terminal, kept
T3 sequence (P53350 345-603): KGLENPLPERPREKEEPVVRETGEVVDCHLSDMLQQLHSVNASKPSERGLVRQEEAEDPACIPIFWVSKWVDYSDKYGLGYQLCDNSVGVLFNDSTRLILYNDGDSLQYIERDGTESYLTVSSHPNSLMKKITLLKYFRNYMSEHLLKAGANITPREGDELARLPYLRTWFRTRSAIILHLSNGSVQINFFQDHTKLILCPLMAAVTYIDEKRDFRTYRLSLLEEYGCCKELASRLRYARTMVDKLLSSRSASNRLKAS

T1 sequence (P53350 345-603): as above
Biotin-conjugated ^MBPPBD (immobilised ligand of BLI) (human), sequence (P53350 345-603): as above
T2 sequence (P53350 whole entry): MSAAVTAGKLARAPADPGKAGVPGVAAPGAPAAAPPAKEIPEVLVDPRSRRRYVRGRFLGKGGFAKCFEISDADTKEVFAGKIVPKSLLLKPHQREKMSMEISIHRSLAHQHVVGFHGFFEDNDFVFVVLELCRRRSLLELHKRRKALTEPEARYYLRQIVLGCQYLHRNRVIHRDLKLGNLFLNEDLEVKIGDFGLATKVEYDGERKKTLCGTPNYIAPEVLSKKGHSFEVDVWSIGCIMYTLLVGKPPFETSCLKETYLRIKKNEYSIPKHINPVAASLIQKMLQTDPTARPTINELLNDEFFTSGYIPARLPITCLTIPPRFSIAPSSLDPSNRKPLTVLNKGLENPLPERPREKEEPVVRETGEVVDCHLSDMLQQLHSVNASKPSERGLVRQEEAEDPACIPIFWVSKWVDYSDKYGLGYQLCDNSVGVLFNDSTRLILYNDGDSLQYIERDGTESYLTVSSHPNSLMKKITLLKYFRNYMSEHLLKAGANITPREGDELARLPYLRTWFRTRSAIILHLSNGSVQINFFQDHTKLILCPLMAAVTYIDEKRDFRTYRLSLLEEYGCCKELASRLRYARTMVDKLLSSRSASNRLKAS
^MBPPBD (6xHis-MBP-TEV-PLK1^345-603) (from UniProt P53350 345-603) (domain or fragment), sequence (P53350 345-603): as the sequence (P53350 345-603) above

Row | Kd [7] [nM] | koff [7] [s⁻¹] | kon [7] [M⁻¹ s⁻¹] | Molecule | other results
1 | – | – | – | ^MBPPBD (6xHis-MBP-TEV-PLK1^345-603) (from UniProt P53350 345-603) (domain or fragment) | Kd [1]: 380 nM
2 | – | – | – | ^MBPCENP-U^84-114/pT98 (from UniProt Q71F23 84-114) (domain or fragment) | Kd [2]: 400 nM; koff [2]: 0.0028 s⁻¹; kon [2]: 7100 M⁻¹ s⁻¹
3 | – | – | – | biotin-conjugated ^MBPCENP-U^58-114/pT78 (immobilised ligand of BLI) (domain or fragment, human, UniProt Q71F23 58-114, looked up, not fully specified (N-terminus); also: N-terminal MBP fusion protein, C-terminal PLPETG tag ligated by sortase A to Gly4-biotin, source: E. coli BL21 (DE3), purified; phosphorylated in vitro with PLK1; biotin-labelled with sortase A; not shown: MBP, N-terminal, kept; PLPETG peptide conjugated with Gly-Gly-Gly-Gly-Biotin, C-terminal, kept) LGENEKDEETYETFDPPLHS[pT]AIYADEEEFSKHCGLSLSSTPPGKEAKRSSDTSGNE | Kd [3]: 1.9 nM; koff [3]: 0.00052 s⁻¹; kon [3]: 280000 M⁻¹ s⁻¹; Kd [4]: 22 nM; koff [4]: 0.0033 s⁻¹; kon [4]: 150000 M⁻¹ s⁻¹
4 | – | – | – | LGENEKDEETYETFDPPLHS[pT]AIYAD (domain or fragment) [singly phosphorylated pT78 peptide of CENP-U (ITC)] | Kd [5]: ~1.9 nM
5 | – | – | – | ^MBPCENP-U^58-114 (6xHis-MBP-TEV-CENP-U^58-114), unphosphorylated (domain or fragment, human, UniProt Q71F23 58-114, looked up, The plasmids paragraph speaks of expression in insect cells, the purification paragraph of E. coli; source: E. coli BL21 (DE3), purified (HisTALON, Resource Q, SEC); not shown: MBP, N-terminal, kept) {6xHis-MBP-TEV}-LGENEKDEETYETFDPPLHSTAIYADEEEFSKHCGLSLSSTPPGKEAKRSSDTSGNE | binding result [6]: binds
6 | 2.5 | 0.00034 | 140000 | LGENEKDEETYETFDPPLHS[pT]AIYAD (domain or fragment, human, UniProt Q71F23 58-83, looked up, also: N-terminal MBP fusion protein, CENP-U (PBIP1), human, residues 58-83 (Motif 1); also called PLK1-phosphorylated ^MBPCENP-U^58-83; phosphorylated Motif 1; source: E. coli BL21 (DE3), purified; not shown: MBP, N-terminal, kept) [^MBPCENP-U^58-83/pT78] | –
7 | 7.2 | 0.001 | 140000 | ^MBPCENP-U^58-114/pT78/F87A/T98V (domain or fragment, human, UniProt Q71F23 58-114, looked up, also: N-terminal MBP fusion protein, source: E. coli BL21 (DE3), purified; phosphorylated in vitro with only PLK1; not shown: MBP, N-terminal, kept) LGENEKDEETYETFDPPLHS[pT]AIYADEEEASKHCGLSLSSVPPGKEAKRSSDTSGNE | –
8 | – | – | – | EEEASKHCGLSLSS[pT]PPGKEAKRSSDTSGNE (domain or fragment, human, UniProt Q71F23 84-114, looked up, also: N-terminal MBP fusion protein, also called F87 to alanine mutant of Motif 2; source: E. coli BL21 (DE3), purified; phosphorylated in vitro with CDK1; not shown: MBP, N-terminal, kept) [^MBPCENP-U^84-114 F87A, phosphorylated with CDK1] | binding result [6]: binds
9 | 10000 | 0.00028 | 28 | {6xHis-MBP-TEV}-LGENEKDEETYETFDPPLHSTAIYAD (domain or fragment, human, UniProt Q71F23 58-83, looked up, CENP-U (PBIP1), human, residues 58-83 (Motif 1); also called Motif 1; unphosphorylated Motif 1; source: E. coli BL21 (DE3), purified (HisTALON, Resource Q, SEC); not shown: MBP, N-terminal, kept) [^MBPCENP-U^58-83 (6xHis-MBP-TEV-CENP-U^58-83), unphosphorylated] | –
10 | 230 | 0.011 | 47000 | LGENEKDEETAETADPPLHS[pT]AIYAD (domain or fragment, human, UniProt Q71F23 58-83, looked up, also: N-terminal MBP fusion protein, CENP-U (PBIP1), human, residues 58-83 (Motif 1); source: E. coli BL21 (DE3), purified; not shown: MBP, N-terminal, kept) [^MBPCENP-U^58-83/Y68A/F71A/pT78] | –
11 | 88 | 0.0077 | 87000 | LGENEKDEETYETADPPLHS[pT]AIYAD (domain or fragment, human, UniProt Q71F23 58-83, looked up, also: N-terminal MBP fusion protein, CENP-U (PBIP1), human, residues 58-83 (Motif 1); source: E. coli BL21 (DE3), purified; not shown: MBP, N-terminal, kept) [^MBPCENP-U^58-83/F71A/pT78] | –
